The nature of series [1]: Determination of self-association property by size exclusion chromatography (Superdex 75). In kind it is physicochemical.
Description: The molecular homogeneity was measured by Symmetry factor Fs. Fs=W0.05h/2A, wherein, W0.05 is the band width at 0.05 peak height and A is the width of the first half peak at 0.05 peak height. The change of average molecular weight was measured by plotting the distribution coefficient Kav vs. protein concentration. Kav=(Vr−V0)/(Vc−Vo), wherein Vr is the retention volume, Vo the void volume and Vc the total bed volume.
Series [2] deals with Lyspro (B28Lys, B29Pro insulin) (UniProt P01308). In words: self-association by size exclusion chromatography, Superdex 75, PBS pH 7.4, 80 umol/l protein.

On to “zinc free insulin: zinc free porcine insulin used as control in size exclusion chromatography”, for which, in series [1] (PBS pH7.4, 40-600 μmol/L), the “retention time on Superdex 75 column versus protein concentration” value is on record as “decreased with increasing concentration”. The “Kav value versus protein concentration” value in series [1] (PBS pH7.4, increasing concentration) is reported as “decreased with increasing concentration”. The “Fs value (symmetry factor, peak shape) versus protein concentration” value in series [1] (PBS pH7.4, insulin: at concentrations above 400 umol/L) is “increased markedly”.
Substance “Lyspro (B28Lys, B29Pro insulin) (from UniProt P01308 25-110; P01308 25-110)” returned a Kav in series [2] of 0.48.

The record behind these values is US20050171008A1, “Monomeric insulin” (priority 2002, published 2005).
